Earlier results, collected in US8691960B2, “Oxidoreductases for enantioselective reactions” (Duke University, priority 2012, dated 2014).

Details: literature (Dang et al. 2009; Gross et al. 2010)

## HsIDH1-R132C: human cytosolic NADP+-dependent isocitrate dehydrogenase (HsIDH1) R132C cancer mutant
  lowering of Vmax for neomorphic activity relative to HsIDH1-R132H: 2 fold
